According to publication PMC6477676, “Staufen2-mediated RNA recognition and localization requires combinatorial action of multiple domains”:

T1: mStau2 dsRBD1-4 (Mus musculus, UniProt Q8CJ67 8-375)
T1 sequence: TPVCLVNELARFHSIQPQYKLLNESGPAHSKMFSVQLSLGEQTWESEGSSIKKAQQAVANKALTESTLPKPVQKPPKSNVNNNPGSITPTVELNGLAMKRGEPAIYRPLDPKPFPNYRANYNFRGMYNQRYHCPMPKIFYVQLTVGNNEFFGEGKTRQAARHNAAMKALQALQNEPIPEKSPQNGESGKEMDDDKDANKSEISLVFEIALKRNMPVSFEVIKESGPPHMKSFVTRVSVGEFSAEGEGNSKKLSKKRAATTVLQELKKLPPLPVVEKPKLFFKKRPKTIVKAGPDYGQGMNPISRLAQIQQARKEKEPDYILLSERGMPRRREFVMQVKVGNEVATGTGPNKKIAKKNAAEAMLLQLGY

T2: mStau2 dsRBD1-4 F40A H169A (Mus musculus, UniProt Q8CJ67 8-375, F40A;H169A)
T2 sequence: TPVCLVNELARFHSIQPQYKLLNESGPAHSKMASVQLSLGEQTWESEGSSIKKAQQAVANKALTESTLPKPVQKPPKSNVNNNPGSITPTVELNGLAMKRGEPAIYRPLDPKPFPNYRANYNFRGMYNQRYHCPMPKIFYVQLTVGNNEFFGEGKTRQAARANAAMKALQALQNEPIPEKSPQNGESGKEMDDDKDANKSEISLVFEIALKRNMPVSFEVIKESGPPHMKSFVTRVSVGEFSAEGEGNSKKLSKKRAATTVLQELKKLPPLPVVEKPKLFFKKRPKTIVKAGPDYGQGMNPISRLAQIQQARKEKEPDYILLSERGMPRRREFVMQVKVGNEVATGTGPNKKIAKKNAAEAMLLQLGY

T3: mStau2 dsRBD1-2 F40A F157A (Mus musculus, UniProt Q8CJ67 8-181, F40A;F157A)
T3 sequence: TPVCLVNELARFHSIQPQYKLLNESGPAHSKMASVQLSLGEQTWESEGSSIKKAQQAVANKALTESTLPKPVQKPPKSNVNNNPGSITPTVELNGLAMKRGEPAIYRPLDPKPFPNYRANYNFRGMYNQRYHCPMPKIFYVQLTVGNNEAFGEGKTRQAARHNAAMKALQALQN

T4: mStau2 dsRBD1-2 F40A H169A (Mus musculus, UniProt Q8CJ67 8-181, F40A;H169A)
T4 sequence: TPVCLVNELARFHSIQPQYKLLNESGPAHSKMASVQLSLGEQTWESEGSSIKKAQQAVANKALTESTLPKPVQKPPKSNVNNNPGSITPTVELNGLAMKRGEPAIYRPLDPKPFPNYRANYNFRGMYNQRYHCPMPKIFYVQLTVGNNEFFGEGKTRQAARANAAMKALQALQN

T5: mStau2 dsRBD2 (Mus musculus, UniProt Q8CJ67 95-181)
T5 sequence: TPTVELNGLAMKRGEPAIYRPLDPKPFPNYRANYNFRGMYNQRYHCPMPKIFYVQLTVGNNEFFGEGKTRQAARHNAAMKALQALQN


How the values were obtained:
[1] = target: T1, mStau2 dsRBD1-4; test: SPR; Hill n 1.7; text says 330 nM; SPR: HBS-EP (10 mM HEPES pH 7.4, 150 mM NaCl, 3 mM EDTA, 0.005% P20); EMSA: 5 nM RNA, protein buffer (40 mM Bis-Tris pH 7, 150 mM NaCl, 2 mM DTT presumed), 4% glycerol, 30 ug/mL yeast tRNA, RT; NMR: 150 mM NaCl, 20 mM Na phosphate pH 7.0, 5 mM DTT, 298 K; details: protein: recombinant; tags: HisSUMO removed; label: 5' 32P (EMSA); biotin (SPR); imperfect hairpin, 26 bp with two bulges
[2] = target: T2, mStau2 dsRBD1-4 F40A H169A; test: SPR; two-site, transient; KDs resemble dsRBD3-4; SPR: HBS-EP (10 mM HEPES pH 7.4, 150 mM NaCl, 3 mM EDTA, 0.005% P20); EMSA: 5 nM RNA, protein buffer (40 mM Bis-Tris pH 7, 150 mM NaCl, 2 mM DTT presumed), 4% glycerol, 30 ug/mL yeast tRNA, RT; NMR: 150 mM NaCl, 20 mM Na phosphate pH 7.0, 5 mM DTT, 298 K; details: protein: recombinant, label: 5' 32P (EMSA), biotin (SPR)
[3] = target: T3, mStau2 dsRBD1-2 F40A F157A; test: SPR; no fit; SPR: HBS-EP (10 mM HEPES pH 7.4, 150 mM NaCl, 3 mM EDTA, 0.005% P20); EMSA: 5 nM RNA, protein buffer (40 mM Bis-Tris pH 7, 150 mM NaCl, 2 mM DTT presumed), 4% glycerol, 30 ug/mL yeast tRNA, RT; NMR: 150 mM NaCl, 20 mM Na phosphate pH 7.0, 5 mM DTT, 298 K; details: protein: recombinant, label: 5' 32P (EMSA), biotin (SPR)
[4] = target: T4, mStau2 dsRBD1-2 F40A H169A; test: as above; details: protein: recombinant, label: 5' 32P (EMSA), biotin (SPR)
[5] = target: T5, mStau2 dsRBD2; test: SPR; Hill n 1.1; text says 829 nM; SPR: HBS-EP (10 mM HEPES pH 7.4, 150 mM NaCl, 3 mM EDTA, 0.005% P20); EMSA: 5 nM RNA, protein buffer (40 mM Bis-Tris pH 7, 150 mM NaCl, 2 mM DTT presumed), 4% glycerol, 30 ug/mL yeast tRNA, RT; NMR: 150 mM NaCl, 20 mM Na phosphate pH 7.0, 5 mM DTT, 298 K; details: protein: recombinant; label: 5' 32P (EMSA); biotin (SPR); imperfect hairpin, 26 bp with two bulges
[6] = target: T1, mStau2 dsRBD1-4; test: SPR; Hill n 1.6; text says 357 nM; SPR: HBS-EP (10 mM HEPES pH 7.4, 150 mM NaCl, 3 mM EDTA, 0.005% P20); EMSA: 5 nM RNA, protein buffer (40 mM Bis-Tris pH 7, 150 mM NaCl, 2 mM DTT presumed), 4% glycerol, 30 ug/mL yeast tRNA, RT; NMR: 150 mM NaCl, 20 mM Na phosphate pH 7.0, 5 mM DTT, 298 K; details: protein: recombinant; tags: HisSUMO removed; label: 5' 32P (EMSA); biotin (SPR); hairpin, 18 bp stem
[7] = imperfect hairpin, 26 bp with two bulges

| Binder | Kd [1] | binding result [2, 7] | binding result [3, 7] | binding result [4, 7] | Kd [5] | binding result ([2]; hairpin, 18 bp stem) | binding result ([3]; hairpin, 18 bp stem) | binding result ([4]; hairpin, 18 bp stem) | Kd [6] |
| --- | --- | --- | --- | --- | --- | --- | --- | --- | --- |
| SRS* (SRS3) (structured_RNA) RNA: GGUAUGUGUGAAUGUGCAUGAAUAUAUAUAUAUAUGCAUAUAUAUAUUUGUAUAUGUUCACACAUG | 0.287 ± 0.127 µM | binds | no binding | no binding | 0.828 ± 0.029 µM |  |  |  |  |
| GGUAUAUACAUGCACAUGCAAUUUGUGUAUGUGUAUGUAUAUA (structured_RNA) [SRS2+5] |  |  |  |  |  | binds | no binding | no binding | 0.33 ± 0.148 µM |
